Test results as given in the supplement of paper PMC9732359.
± gives the uncertainty stated by the source.

Assay: protein stability index of a GFP-peptide fusion (yeast GPS) (PSI 1-4); higher = more stable; sorted into four equal gates, so the index is relative within each strain
In short: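 Mid-log yeast cultures in leucine-free medium, carrying a pooled plasmid library, were sorted into four equal gates by their GFP/Cherry fluorescence ratio. Each plasmid expressed Cherry along with GFP fused upstream of a tiled 17-residue yeast protein peptide. Plasmids recovered from each gate were PCR-amplified and Illumina-sequenced, with reads assigned to strains by barcodes. The protein stability index was obtained by summing each gate's read frequency weighted by its gate number.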

Sequence | protein stability index (doa10∆) | protein stability index (pdr5∆) | protein stability index (san1∆) | protein stability index (ubr1∆)
HNGAPHHAIEEAESLLQ [RPO21] | 3.07 ± 0.12 | 3.39 ± 0.18 | 2.66 ± 0.29 | 3 ± 0.088
ITRSVMRFNIEIIADWI [BRR2] | 3.04 ± 0.071 | 2.7 ± 0.078 | 2.57 ± 0.097 | 3.16 ± 0.065
KSKSSLDGKFSLFHTAV [RPN2] | 2.86 ± 0.096 | 2.8 ± 0.072 | 2.86 ± 0.067 | 2.77 ± 0.067
SLDAREANFDLINIDTS [RPC40] | 3.5 ± 0.078 | 3.22 ± 0.066 | 3.18 ± 0.058 | 3.04 ± 0.071
IDKNHGFERLTVNEPQM [SRB7] | 3.03 ± 0.094 | 3.25 ± 0.075 | 3.23 ± 0.14 | 3.02 ± 0.052
IRQDVNLGRAVFWEIQS [PRP8] | 3.04 ± 0.069 | 2.86 ± 0.053 | 2.64 ± 0.06 | 2.86 ± 0.04
GGLFGNSAQNNSTTSGG [YGR119C/NUP57] | 3.08 ± 0.069 | 3.36 ± 0.11 | 2.78 ± 0.068 | 3.06 ± 0.096
DSTVVYPLPKFPTTSHE [MED8] | 2.75 ± 0.048 | 3.06 ± 0.051 | 2.92 ± 0.046 | 3.02 ± 0.054
MDVDIGCYFEEKRYDDK [CSN12] | 3.42 ± 0.087 | 3.19 ± 0.15 | 3.01 ± 0.11 | 3.33 ± 0.15
VSEITKLKFFPSGEALI [RPN14] | 2.55 ± 0.089 | 2.76 ± 0.069 | 2.95 ± 0.064 | 3.18 ± 0.059
EKKDSGSSKPAFSFGAK [YJL041W/NSP1] | 3.32 ± 0.1 | 3.26 ± 0.098 | 3.08 ± 0.073 | 3.35 ± 0.051
VDKIFEKVNNNATLTPN [SWI1] | 3.09 ± 0.079 | 3.08 ± 0.073 | 3.22 ± 0.069 | 3.15 ± 0.051
WCAGAGTAADTEAVTQL [PUP1] | 3.16 ± 0.24 | 2.94 ± 0.23 | 2.78 ± 0.21 | –
AMLINLILRDFLNNGEV [RPN3] | 2.67 ± 0.086 | 2.56 ± 0.076 | 2.59 ± 0.066 | 2.84 ± 0.076
MRSKLEKLTLVTLSEIY [CSN9] | 1.56 ± 0.05 | 1.79 ± 0.035 | 1.79 ± 0.07 | 1.79 ± 0.051
VAKTAPNSNKTHTEQNN [SNF2] | 2.82 ± 0.04 | 3.07 ± 0.052 | 3.01 ± 0.033 | 3.06 ± 0.037
KDLKHIIYYKFNKNLGK [PRP8] | 1.14 ± 0.052 | 1.28 ± 0.053 | 1.32 ± 0.11 | 1.17 ± 0.061
STYKHDRGIANIRNNIE [SRB4] | 3.41 ± 0.19 | 3.27 ± 0.14 | 2.95 ± 0.14 | 3.49 ± 0.13
NAELLDYLFHLLISLNI [YLR018C/POM34] | 1.79 ± 0.044 | 1.37 ± 0.031 | 1.21 ± 0.068 | 1.28 ± 0.027
KEKLIGWYHSGPKLRAS [RPN8] | 2.16 ± 0.055 | 2.41 ± 0.045 | 2.53 ± 0.051 | 2.63 ± 0.042
TVASSKVGYTLPSHIIS [RPL4A] | 3.19 ± 0.076 | 3.02 ± 0.052 | 3.09 ± 0.035 | 3.25 ± 0.043
RTLLTEEIEPKLEKLRN [SMC2] | 3.02 ± 0.074 | 3 ± 0.068 | 3.18 ± 0.042 | 3.21 ± 0.054
QDNKQLYQIWIVMVWLK [YDL116W/NUP84] | 2.62 ± 0.058 | 2.62 ± 0.049 | 3.02 ± 0.065 | 2.78 ± 0.031
PQKSSSKGFVFNSVQKK [YAR002W/NUP60] | 1.65 ± 0.088 | 1.4 ± 0.1 | 1.83 ± 0.14 | 1.18 ± 0.13
NQSNLNGGNNTQQPGTN [SNF2] | 2.76 ± 0.073 | 3.1 ± 0.075 | 3.08 ± 0.062 | 3.04 ± 0.056
YKAQADTFYMNVESVGS [RPB3] | 2.75 ± 0.088 | 2.34 ± 0.058 | 2.98 ± 0.068 | 3.07 ± 0.079
IEANVTVKTSDDYVLRI [RPS1A] | 2.98 ± 0.035 | 2.9 ± 0.038 | 2.96 ± 0.036 | 2.726 ± 0.027

Sequence | protein stability index (doa10∆) | protein stability index (pdr5∆) | protein stability index (san1∆) | protein stability index (ubr1∆)
AARKAEKAKSAGTQSSK [RPL24A] | 3.13 ± 0.099 | 3.11 ± 0.068 | 3.22 ± 0.082 | 3.29 ± 0.043
NNMLYPREDKENNRLLF [RPB9] | 3.13 ± 0.13 | 3.43 ± 0.16 | 2.78 ± 0.1 | 3.25 ± 0.22
TEAVTQLIGSNIELHSL [PUP1] | 3.29 ± 0.2 | 3.23 ± 0.12 | 3.44 ± 0.11 | 2.96 ± 0.13
IDLLTFQYGSRLPTFLK [RPP1] | 1.89 ± 0.064 | 1.84 ± 0.052 | 1.6 ± 0.081 | 1.57 ± 0.047
QYYRGLPLYEKNTLLER [SWP82] | 3.13 ± 0.12 | 3.34 ± 0.11 | 3.13 ± 0.072 | 3.13 ± 0.049
TTNNNNTNNNNTNNNNN [SWI1] | 3.39 ± 0.087 | 3.5 ± 0.082 | 3.43 ± 0.06 | 3.42 ± 0.079
VAQLKPFFKYIDDANVT [RPC37] | 2.81 ± 0.078 | 2.9 ± 0.07 | 2.9 ± 0.062 | 2.8 ± 0.07
EEVNRCYLRWQHLRNEH [SNF2] | 3.27 ± 0.07 | 3 ± 0.075 | 3.23 ± 0.071 | 3.05 ± 0.075
ARVILYLKNVLFAFNGV [SIN4] | 2.38 ± 0.064 | 1.57 ± 0.06 | 1.42 ± 0.077 | 1.38 ± 0.042
SAINQYNRRQDKKNKRL [SNF2] | 3.13 ± 0.083 | 3.34 ± 0.082 | 3.23 ± 0.074 | 3.25 ± 0.087
LTTAREHHSSVKYASPN [FAS2] | 3.02 ± 0.065 | 3.11 ± 0.057 | 3.04 ± 0.041 | 3.06 ± 0.04
VEWINPSRRERRREQTT [ISW2] | – | – | – | 3.39 ± 0.15
VFVNTGLQNVRKVRTKK [SWP82] | 2.51 ± 0.16 | 2.35 ± 0.096 | 2.78 ± 0.17 | 3.11 ± 0.15
TFLPSYMKFSNKYLELC [RRI2] | 2.25 ± 0.052 | 2.35 ± 0.052 | 2.37 ± 0.073 | 2.37 ± 0.04
VLLATWNLEKWREIIEK [IRR1] | – | 3.14 ± 0.16 | 2.92 ± 0.1 | –
EILEKCAEGIFVVKLDT [GAL11] | – | – | – | 3.72 ± 0.28
NQIPVTEHSKVTRFDEK [SRB6] | 2.28 ± 0.05 | 3.02 ± 0.049 | 2.86 ± 0.052 | 2.87 ± 0.048
TGGGLFGSKPTGATSLF [YGL172W/NUP49] | 3.45 ± 0.11 | 3.57 ± 0.1 | 3.56 ± 0.045 | 3.62 ± 0.074
KKWNDLKNKNFKCQEKD [SIR2] | 3.46 ± 0.23 | 3.34 ± 0.14 | 3.37 ± 0.072 | 3.11 ± 0.12
TQLDKLRPRKDSKDGTT [SMB1] | 2.26 ± 0.28 | 2.15 ± 0.28 | – | 1.77 ± 0.2
KQERLKENEESLTPTQS [PRP28] | 3.13 ± 0.092 | 3.4 ± 0.07 | 3.22 ± 0.12 | 3.15 ± 0.074
AVTEREVLVTPGLEFLD [MCD1] | 2.85 ± 0.14 | 3.15 ± 0.15 | 2.75 ± 0.089 | 2.94 ± 0.13
LRPLFTRYELYIKNILE [YLR335W/NUP2] | 1.6 ± 0.053 | 1.88 ± 0.044 | 1.8 ± 0.081 | 1.93 ± 0.033
DELITEGNEKLAAVPAA [RPP2A] | 2.71 ± 0.09 | 2.92 ± 0.099 | 2.74 ± 0.083 | 2.78 ± 0.09
TVRVDKASTYGELVLDI [SNF12] | 2.38 ± 0.06 | 2.38 ± 0.053 | 2.02 ± 0.086 | 1.81 ± 0.044
KITAKTQHEEEEEQDTG [IRR1] | 2.69 ± 0.11 | 3.16 ± 0.13 | 2.82 ± 0.22 | –
